According to the Human Domainome abundance scans (Beltran et al. 2025):
± gives the uncertainty stated by the source.

B1: Protein C-ets-1, residues 55 to 135; numbered along this chain, P14921 (parent)
chain: GFTKEQQRLGIPKDPRQWTETHVRDWVMWAVNEFSLKGVDFQKFCMNGAALCALGKDCFLELAPDFVGDILWEHLEILQKE

Variants of: B1
Assay: abundance fitness (aPCA) (normalised: wild type 0, dead -1); higher = more abundant; growth selection in yeast, the domain comes from the species named
Settings: Homo sapiens

Variant	abundance fitness
GFTKEQQRLGIPKDPRQWTETHVRDWVMWAVNEFSLKGVDFQKFCMNHAALCALGKDCFLELAPDFVGDILWEHLEILQKE	-0.94 ± 0.47
GFTKEQQRLGIPKDPRQWTETHVRDWVMWAVNEFSLKGVDFQKFCMNEAALCALGKDCFLELAPDFVGDILWEHLEILQKE	-0.806 ± 0.17
GFTKEQQRLGIPKDPRQWTETHVRDWVMWAVNEFSLKGVDFQKFCMNIAALCALGKDCFLELAPDFVGDILWEHLEILQKE	-1.03 ± 0.29
GFTKEQQRLGIPKDPRQWTETHVRDWVMWAVNEFSLKGVDFQKFCMNLAALCALGKDCFLELAPDFVGDILWEHLEILQKE	-1.05 ± 0.086
GFTKEQQRLGIPKDPRQWTETHVRDWVMWAVNEFSLKGVDFQKFCMNRAALCALGKDCFLELAPDFVGDILWEHLEILQKE	-0.933 ± 0.085
GFTKEQQRLGIPKDPRQWTETHVRDWVMWAVNEFSLKGVDFQKFCMNNAALCALGKDCFLELAPDFVGDILWEHLEILQKE	-0.758 ± 0.2
GFTKEQQRLGIPKDPRQWTETHVRDWVMWAVNEFSLKGVDFQKFCMNQAALCALGKDCFLELAPDFVGDILWEHLEILQKE	-0.931 ± 0.14
GFTKEQQRLGIPKDPRQWTETHVRDWVMWAVNEFSLKGVDFQKFCMNAAALCALGKDCFLELAPDFVGDILWEHLEILQKE	-0.972 ± 0.093
GFTKEQQRLGIPKDPRQWTETHVRDWVMWAVNEFSLKGVDFQKFCMNMAALCALGKDCFLELAPDFVGDILWEHLEILQKE	-1.07 ± 0.23
GFTKEQQRLGIPKDPRQWTETHVRDWVMWAVNEFSLKGVDFQKFCMNPAALCALGKDCFLELAPDFVGDILWEHLEILQKE	-1.02 ± 0.11
GFTKEQQRLGIPKDPRQWTETHVRDWVMWAVNEFSLKGVDFQKFCMNCAALCALGKDCFLELAPDFVGDILWEHLEILQKE	-0.884 ± 0.13
GFTKEQQRLGIPKDPRQWTETHVRDWVMWAVNEFSLKGVDFQKFCMNKAALCALGKDCFLELAPDFVGDILWEHLEILQKE	-0.911 ± 0.35
GFTKEQQRLGIPKDPRQWTETHVRDWVMWAVNEFSLKGVDFQKFCGNGAALCALGKDCFLELAPDFVGDILWEHLEILQKE	-0.671 ± 0.046
GFTKEQQRLGIPKDPRQWTETHVRDWVMWAVNEFSLKGVDFQKFCYNGAALCALGKDCFLELAPDFVGDILWEHLEILQKE	-0.203 ± 0.083
GFTKEQQRLGIPKDPRQWTETHVRDWVMWAVNEFSLKGVDFQKFCENGAALCALGKDCFLELAPDFVGDILWEHLEILQKE	-0.991 ± 0.13
GFTKEQQRLGIPKDPRQWTETHVRDWVMWAVNEFSLKGVDFQKFCANGAALCALGKDCFLELAPDFVGDILWEHLEILQKE	-0.652 ± 0.05
GFTKEQQRLGIPKDPRQWTETHVRDWVMWAVNEFSLKGVDFQKFCRNGAALCALGKDCFLELAPDFVGDILWEHLEILQKE	-0.507 ± 0.043

Variant	abundance fitness
GFTKEQQRLGIPKDPRQWTETHVRDWVMWAVNEFSLKGVDFQKFCHNGAALCALGKDCFLELAPDFVGDILWEHLEILQKE	-0.441 ± 0.12
GFTKEQQRLGIPKDPRQWTETHVRDWVMWAVNEFSLKGVDFQKFCDNGAALCALGKDCFLELAPDFVGDILWEHLEILQKE	-0.777 ± 0.12
GFTKEQQRLGIPKDPRQWTETHVRDWVMWAVNEFSLKGVDFQKFCPNGAALCALGKDCFLELAPDFVGDILWEHLEILQKE	-0.852 ± 0.076
GFTKEQQRLGIPKDPRQWTETHVRDWVMWAVNEFSLKGVDFQKFCINGAALCALGKDCFLELAPDFVGDILWEHLEILQKE	-0.154 ± 0.074
GFTKEQQRLGIPKDPRQWTETHVRDWVMWAVNEFSLKGVDFQKFCKNGAALCALGKDCFLELAPDFVGDILWEHLEILQKE	-0.376 ± 0.065
GFTKEQQRLGIPKDPRQWTETHVRDWVMWAVNEFSLKGVDFQKFCSNGAALCALGKDCFLELAPDFVGDILWEHLEILQKE	-0.724 ± 0.05
GFTKEQQRLGIPKDPRQWTETHVRDWVMWAVNEFSLKGVDFQKFCCNGAALCALGKDCFLELAPDFVGDILWEHLEILQKE	-0.317 ± 0.076
GFTKEQQRLGIPKDPRQWTETHVRDWVMWAVNEFSLKGVDFQKFCFNGAALCALGKDCFLELAPDFVGDILWEHLEILQKE	-0.028 ± 0.09
GFTKEQQRLGIPKDPRQWTETHVRDWVMWAVNEFSLKGVDFQKFCLNGAALCALGKDCFLELAPDFVGDILWEHLEILQKE	-0.074 ± 0.036
GFTKEQQRLGIPKDPRQWTETHVRDWVMWAVNEFSLKGVDFQKFCVNGAALCALGKDCFLELAPDFVGDILWEHLEILQKE	-0.234 ± 0.028
GFTKEQQRLGIPKDPRQWTETHVRDWVMWAVNEFSLKGVDFQKFCWNGAALCALGKDCFLELAPDFVGDILWEHLEILQKE	-0.631 ± 0.11
GFTKEQQRLGIPKDPRQWTETHVRDWVMWAVNEFSLKGVDFQKFCQNGAALCALGKDCFLELAPDFVGDILWEHLEILQKE	-0.335 ± 0.065
GFTKEQQRLGIPKDPRQWTETHVRDWVMWAVNEFSLKGVDFQKFCTNGAALCALGKDCFLELAPDFVGDILWEHLEILQKE	-0.477 ± 0.058
GFTKEQQRLGIPKDPRQWTETHVRDWVMWAVNEFSLKGVDFQKFYMNGAALCALGKDCFLELAPDFVGDILWEHLEILQKE	-0.032 ± 0.045
GFTKEQQRLGIPKDPRQWTETHVRDWVMWAVNEFSLKGVDFQKFEMNGAALCALGKDCFLELAPDFVGDILWEHLEILQKE	0.022 ± 0.053
GFTKEQQRLGIPKDPRQWTETHVRDWVMWAVNEFSLKGVDFQKFLMNGAALCALGKDCFLELAPDFVGDILWEHLEILQKE	-0.087 ± 0.027
GFTKEQQRLGIPKDPRQWTETHVRDWVMWAVNEFSLKGVDFQKFSMNGAALCALGKDCFLELAPDFVGDILWEHLEILQKE	0.01 ± 0.035
